Entries after “also recorded” stand apart in the source; their conditions may differ.
Legend:
[1] = system: β-catenin; assay: Western blot for nuclear and cytoplasmic β-catenin in endothelial cells; type: cell-based, mouse; conditions: SFRP2 700 pM
Procedure: SFRP2 has been described as both a Wnt antagonist and agonist, but its effects on Wnt signaling in endothelial cells have not been elucidated. To determine if SFRP2 mediates canonical Wnt signaling in endothelial cells, cytoplasmic and nuclear β-catenin levels were measured in SFRP2-treated endothelial cells. Mouse endothelial cells were plated in 12-well plates and allowed to attach overnight. The next day, the media was changed and added to the wells with and without SFRP2 (700 pM). Cells were incubated for 16 hours, and the nuclear and cytoplasmic proteins were extracted by using NE-PER™ nuclear and cytoplasmic extraction reagent from PIERCE (Pierce Biotechnology) as described in the manufacturer's manual. Western blot analysis was performed using standard methods, with primary antibody to the dephosphorylated (active) β-catenin antibody (Santa Cruz, Clone BDI480, catalog # sc-59893).
To evaluate the role of the non-canonical Wnt/Ca^++ pathway in SFRP2 induced angiogenesis, nuclear dephosphorylated NFATc3 protein levels were compared in control and SFRP2-treated endothelial cells. MEC cells were plated in 12-well plates and allowed to attach overnight. The next day, the media was changed and added to the wells with and without SFRP2 (700 pM). […]

[2] = system: mouse endothelial cells (MEC); assay: Endothelial cell tube formation assay, MEC cells; type: cell-based; conditions: SFRP2 concentration range, 8 hours
Procedure: The tube formation properties of SFRP2 on mouse endothelial cells (MEC) cells were evaluated using an endothelial cell tube formation assay. ECMATRIX (Chemicon) was thawed, diluted and solidified in a 96 well plate according to the manufacturer's instructions. 1×10^4 cells/well in 150 μl of DMEM (celigro) with 10% FBS (HyClone) and a concentration range (7-7000 pM) of SFRP2 (US Biologicals) were seeded onto the matrix and returned to 37° C., 5% CO2 for 8 hours. Images were acquired using the Nikon Eclipse TS100 microscope at 4× magnification with a Nikon CoolPix 995 digital camera. Results were quantified by counting the number of branch points.
To evaluate whether tacrolimus inhibits SFRP2 induced tube formation, MEC cells were treated as above with SFRP2 7 nM with and without tacrolimus 100 uM for 8 hours and branch points were determined as described above. To evaluate whether tacrolimus reversed established tubes, cells were incubated with SFRP2 7 nM for 8 hours and then BSA or tacrolimus 100 μM was added to SFRP2 treated cells for an additional 4 hours, and then the number of branch points were counted. […] Tacrolimus was not cytotoxic to MEC cells, as only 5% of tacrolimus-treated cells took up trypan blue dye (data not shown).
The tube formation properties of SFRP2 on MEC cells were evaluated using an endothelial cell tube formation assay. ECMATRIX (Chemicon) was thawed, diluted and solidified in a 96 well plate according to the manufactures instructions. 1×10^4 cells/well in 150 μl of DMEM (cellgro) with 10% FBS (HyClone) and a concentration range (3-3000 pM) of SFRP2 (US Biologicals) were seeded onto the matrix and returned to 37° C., 5% CO2 for 8 hours. Images were acquired using the Nikon Eclipse TS100 microscope at 4× magnification with a Nikon CoolPix 995 digital camera. Results were quantified by counting the number of branch point. To evaluate whether tacrolimus inhibits SFRP2 induced tube formation, MEC cells were treated as above with SFRP2 30 nM with and without tacrolimus (1 μM-100 uM) for 8 hours and branch points were determined as described above. To evaluate whether inhibitors of SFRP2-mediated angiogenesis would inhibit the growth of SVR tumor cells, SVR cells were treated with tacrolimus (1 μM-100 μM) or with a rabbit polyclonal antibody to SFRP-2 (H-140) (Santa Cruz Biotechnology, Santa Cruz, Calif., catalogue 4 sc-13940) in the tube formation assay.

B1: SFRP2: mouse recombinant SFRP2 (US Biologicals), secreted frizzled-related protein 2 (protein)
chain: LFLFGQPDFSYKRSNCKPIPANLQLCHGIEYQNMRLPNLLGHETMKEVLEQAGAWIPLVMKQCHPDTKKFLCSLFAPVCLDDLDETIQPCHSLCVQVKDRCAPVMSAFGFPWPDMLECDRFPQDNDLCIPLASSDHLLPATEEAPKVCEACKTKNEDDNDIMETLCKNDFALKIKVKEITYINRDTKIILETKSKTIYKLNGVSERDLKKSVLWLKDSLQCTCEEMNDINAPYLVMGQKQGGELVITSVKRWQKGQREFKRISRSIRKLQC
- nuclear (and cytoplasmic) β-catenin level [1]: no change in nuclear β-catenin; also recorded: no change in cytoplasmic or nuclear β-catenin levels
- endothelial tube formation (branch points) [2]: induced by SFRP2 in a concentration-dependent manner; also recorded: induces endothelial tube formation at 8 hours in a concentration-dependent manner

Source: patent US9073982B2, “Targets for regulation of angiogenesis” (The University of North Carolina at Chapel Hill, priority 2008, dated 2015)
